Data on ten molecules can be found in patent publication CN110981959A (SHENZHEN PREGENE BIOPHARMACEUTICAL CO LTD, dated 2020).

Where a chain is given by its changes, count along the chain named.

Sequences and labels used below:
B1: CD47单域抗体 SEQ ID NO: 7 (VHH)
VHH: QVKLEESGGGLVQPGESLRLSCVASGFTFSDAHMRWYRQAPGKEREMVASISTTGSITIYADSVKGRFTISRDNDEKTVYLRMNSLKPEDTAAYYCRAYGFQIDSWGQGTQVTVSS
notes: His-tagged sdAb from pSJF2 in E. coli (Ni purification, anti-His detection); also called CD47纳米抗体
B2: CD47单域抗体 SEQ ID NO: 1 (VHH)
VHH: DVKLVESGGGLVQPGGSLRLSCAASGFTVSSYSMRWYRQVPGKERELIARITSTGQPIEYGESVKGRFTISRDNAKNTLYLEMNALKPEDTAVYYCWGAGYWGQGTQVTVSS
notes: Expressed from pSJF2 in E. coli, purified on Ni column and detected with anti-His antibody, so it carried a His tag; also called CD47纳米抗体
B3: CD47单域抗体 SEQ ID NO: 4 (VHH)
VHH: B2 VHH with K3Q, L11S, R19T, S31N, V40A, Q56V, G61A, E62D, A85G, G100A
notes: as for B1
B4: CD47单域抗体 SEQ ID NO: 8 (VHH)
VHH: B2 VHH with K3Q, V5E, V40A, I48V, Q56E, G61V, K76L, Y80N, A85D
notes: as for B1
B5: CD47单域抗体 SEQ ID NO: 9 (VHH)
VHH: AVKLVESGGGLVQPGGSLRLSCAASGFTVSNNNLRWYRQAPGKERELVAMITSAGNTNYADAVKGRSTISRDNAKNTLYLEMYRLKPEDTAVYYCWGAAHWGRGTQVTVSS
notes: as for B1
B6: CD47单域抗体 SEQ ID NO: 2 (VHH)
VHH: QVKLEESGGGLVQPGESLRLSCVASGFAFSSALMRWYRQAPGKERELVASITTAGGITGYADSVKGRFTISRDNAENTLYLQMNSLKPEDTAVYYCRAYGFQLDNWGQGTQVTVSS
notes: as for B1
B7: CD47单域抗体 SEQ ID NO: 5 (VHH)
VHH: B6 VHH with Q1G, K3Q, E5V, I51V, A54T, Q82R, Q102G, N105S
notes: as for B1
B8: CD47单域抗体 SEQ ID NO: 3 (VHH)
VHH: HVQLEESGGGLVQPGGSLRLSCKASGLTFASYSMRWYRQAPGQERELVARLSSSGVPIEYVDSVKGRFTASRDDAKSTLYLQMNSLKPEDTAMYYCWIANYWGQGTQVTVSS
notes: as for B1
B9: CD47单域抗体 SEQ ID NO: 6 (VHH)
VHH: B8 VHH with H1Q, Q3K, K23A, A30S, S52T, V56E, V61A, D74N, L79V
notes: as for B1
B10: CD47单域抗体 SEQ ID NO: 10 (VHH)
VHH: GVKLVESGGGLVQPGGSLTLSCVASGFDFNSAHMRWYRQGPGKEREMVASISTTGGVTIYEDSVKGRFTISRDNADNTAYLRMNSLKPEDTAVYYCRAYGFGIDYWGQGTQVTVSS
notes: as for B1

The target in the first experiment is CD47抗原 (北京义翘神州, 货号12283-H08H) (UniProt Q08722). Briefly: ELISA of induced culture supernatants on CD47 antigen (clone screening).
For the molecule B1, the OD值 over negative control (fold) is > 5 fold.
On to B2, for which the OD值 over negative control (fold) is > 5 fold.
Same read-out and setting: then B3, with > 5 fold.
Consider B4, for which the OD值 over negative control (fold) is > 5 fold.
Consider B5, for which the OD值 over negative control (fold) is > 5 fold.
On the same count and under the same terms, next, B6: > 5 fold.
Same read-out and setting: then B7, with > 5 fold; and B8, with > 5 fold.
Still for that read-out and setting: then B9, with > 5 fold; and B10, with > 5 fold.

Another experiment addresses CD47 on HL-60 cells (细胞膜表面表达的CD47抗原) (UniProt Q08722). Briefly: flow cytometry, 20 μg/ml nanobody on HL-60 cells, anti-His staining.
With B1, the 结合率 is > 99%.
Still for that read-out and setting: next, B2: > 99%; B3: > 99%; B4: > 99%.
As to B5, the 结合率 is > 99%.
Regarding B6, the 结合率 is > 99%.
As to B7, the 结合率 was > 99%.
The same measure, in the same setting: then B8, with > 99%.
Same read-out and setting: next, B9: > 99%; B10: > 99%.

For the next experiment, the target named is Human CD47/Biotinylated (human, UniProt Q08722 19-139, limits assumed, biotinylated (site not stated)). Briefly: BLI-type kinetics, biotinylated human CD47 captured on SA probes, antibody at 73.5-588.2 nM.
Sequence of Human CD47/Biotinylated (Q08722 19-139 limits assumed): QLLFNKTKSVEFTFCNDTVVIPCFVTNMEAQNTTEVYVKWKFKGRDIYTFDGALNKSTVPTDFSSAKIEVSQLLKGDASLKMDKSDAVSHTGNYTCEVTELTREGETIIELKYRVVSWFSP
As usually defined, the Kd is the equilibrium constant for the complex coming apart. Low values mean tighter binding, high ones weaker binding. For B1, the equilibrium dissociation constant (Kd) was < 1 nM.
Still for that read-out and setting: next, B2: < 1 nM.
The same measure, in the same setting: then B3, with < 1 nM.
Still for that read-out and setting: then B4, with < 1 nM; and B5, with < 1 nM.
As to B6, the Kd was < 1 nM.
Same read-out and setting: next, B7: < 1 nM; B8: < 1 nM.
Same read-out and setting: next, B9: < 1 nM; B10: < 1 nM.
